From patent US20110118131A1 (published 2011)

target: T1, IL-1beta (UniProt P01584 117-269); test: Biacore
T1 construct: also called IL-1β

Binder	fold difference in affinity vs parental
XPA23 Fab, heavy chain S54N (Fab, V domains shown) VH: EVQLLESGGGLVQPGGSLRLSCAASGFTFSKYFMFWVRQAPGKGLEWVSVISPNGGMTRYADSVKGRFTISRDNSKNTLYLQMNSLRAEDTAVYYCARVGYGGNSDYWGQGTLVTVSS VL: DIQMTQSPSSVSASVGDRLTIICRASQDINRWLAWYQQTPGNAPKLLIHSATSLQSGVPSRFSGSGSGTDFTLTINSLQPEDFATYYCQQADSFPLTFGGGTKVEIK	0.08 fold
XPA23 Fab, heavy chain S54R (Fab, V domains shown) VH: EVQLLESGGGLVQPGGSLRLSCAASGFTFSKYFMFWVRQAPGKGLEWVSVISPRGGMTRYADSVKGRFTISRDNSKNTLYLQMNSLRAEDTAVYYCARVGYGGNSDYWGQGTLVTVSS VL: DIQMTQSPSSVSASVGDRLTIICRASQDINRWLAWYQQTPGNAPKLLIHSATSLQSGVPSRFSGSGSGTDFTLTINSLQPEDFATYYCQQADSFPLTFGGGTKVEIK	1.43 fold
XPA23 Fab, heavy chain S54Q (Fab, V domains shown) VH: EVQLLESGGGLVQPGGSLRLSCAASGFTFSKYFMFWVRQAPGKGLEWVSVISPQGGMTRYADSVKGRFTISRDNSKNTLYLQMNSLRAEDTAVYYCARVGYGGNSDYWGQGTLVTVSS VL: DIQMTQSPSSVSASVGDRLTIICRASQDINRWLAWYQQTPGNAPKLLIHSATSLQSGVPSRFSGSGSGTDFTLTINSLQPEDFATYYCQQADSFPLTFGGGTKVEIK	1.01 fold
XPA23 Fab, heavy chain S54W (Fab, V domains shown) VH: EVQLLESGGGLVQPGGSLRLSCAASGFTFSKYFMFWVRQAPGKGLEWVSVISPWGGMTRYADSVKGRFTISRDNSKNTLYLQMNSLRAEDTAVYYCARVGYGGNSDYWGQGTLVTVSS VL: DIQMTQSPSSVSASVGDRLTIICRASQDINRWLAWYQQTPGNAPKLLIHSATSLQSGVPSRFSGSGSGTDFTLTINSLQPEDFATYYCQQADSFPLTFGGGTKVEIK	1.07 fold

Next, values leading:

fold difference in affinity vs parental	Binder
0.99 fold	XPA23 Fab, heavy chain S54Y (Fab, V domains shown) VH: EVQLLESGGGLVQPGGSLRLSCAASGFTFSKYFMFWVRQAPGKGLEWVSVISPYGGMTRYADSVKGRFTISRDNSKNTLYLQMNSLRAEDTAVYYCARVGYGGNSDYWGQGTLVTVSS VL: DIQMTQSPSSVSASVGDRLTIICRASQDINRWLAWYQQTPGNAPKLLIHSATSLQSGVPSRFSGSGSGTDFTLTINSLQPEDFATYYCQQADSFPLTFGGGTKVEIK
1.17 fold	XPA23 Fab, heavy chain S105E (Fab, V domains shown) VH: EVQLLESGGGLVQPGGSLRLSCAASGFTFSKYFMFWVRQAPGKGLEWVSVISPSGGMTRYADSVKGRFTISRDNSKNTLYLQMNSLRAEDTAVYYCARVGYGGNEDYWGQGTLVTVSS VL: DIQMTQSPSSVSASVGDRLTIICRASQDINRWLAWYQQTPGNAPKLLIHSATSLQSGVPSRFSGSGSGTDFTLTINSLQPEDFATYYCQQADSFPLTFGGGTKVEIK
0.05 fold	XPA23 Fab, heavy chain S105H (Fab, V domains shown) VH: EVQLLESGGGLVQPGGSLRLSCAASGFTFSKYFMFWVRQAPGKGLEWVSVISPSGGMTRYADSVKGRFTISRDNSKNTLYLQMNSLRAEDTAVYYCARVGYGGNHDYWGQGTLVTVSS VL: DIQMTQSPSSVSASVGDRLTIICRASQDINRWLAWYQQTPGNAPKLLIHSATSLQSGVPSRFSGSGSGTDFTLTINSLQPEDFATYYCQQADSFPLTFGGGTKVEIK
1.25 fold	XPA23 Fab, heavy chain S105F (Fab, V domains shown) VH: EVQLLESGGGLVQPGGSLRLSCAASGFTFSKYFMFWVRQAPGKGLEWVSVISPSGGMTRYADSVKGRFTISRDNSKNTLYLQMNSLRAEDTAVYYCARVGYGGNFDYWGQGTLVTVSS VL: DIQMTQSPSSVSASVGDRLTIICRASQDINRWLAWYQQTPGNAPKLLIHSATSLQSGVPSRFSGSGSGTDFTLTINSLQPEDFATYYCQQADSFPLTFGGGTKVEIK
